Results on one molecule are retold here after publication PMC9663503, “Independently evolved viral effectors convergently suppress DELLA protein SLR1-mediated broad-spectrum antiviral immunity in rice” (Nature Communications, 2022).

This test has as its target T1, GST-SLR1 (rice (Oryza sativa), UniProt Q7G7J6 1-625).
T1 construct: SLENDER RICE 1 (SLR1), the rice DELLA protein; 'the cDNAs encoding SLR1'; source: E. coli Rosetta (DE3), purified (GSTrap FF column)
T1 sequence: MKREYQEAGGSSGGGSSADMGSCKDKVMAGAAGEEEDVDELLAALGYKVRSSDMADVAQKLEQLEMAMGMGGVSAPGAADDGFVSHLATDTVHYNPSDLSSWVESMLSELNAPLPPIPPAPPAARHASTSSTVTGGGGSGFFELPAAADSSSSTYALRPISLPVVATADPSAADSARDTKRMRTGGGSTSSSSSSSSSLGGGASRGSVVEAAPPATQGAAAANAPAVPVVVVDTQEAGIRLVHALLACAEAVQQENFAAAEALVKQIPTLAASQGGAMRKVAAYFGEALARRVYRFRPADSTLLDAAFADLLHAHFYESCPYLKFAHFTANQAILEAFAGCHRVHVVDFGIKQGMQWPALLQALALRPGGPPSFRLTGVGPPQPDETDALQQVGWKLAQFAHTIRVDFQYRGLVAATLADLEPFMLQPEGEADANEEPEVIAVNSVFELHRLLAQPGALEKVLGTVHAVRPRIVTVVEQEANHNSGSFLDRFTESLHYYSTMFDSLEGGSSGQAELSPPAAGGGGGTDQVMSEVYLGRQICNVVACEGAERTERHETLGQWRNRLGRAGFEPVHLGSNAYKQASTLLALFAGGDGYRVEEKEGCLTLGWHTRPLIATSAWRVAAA
Kind of test: pull-down; competitive pull-down: GST-SLR1 and MBP-His-OsGID1 with 100 µM GA3, then 10 or 50 µg TF-His-SP8 (or MBP-His-P2), 4 °C about 2 h; GST beads; anti-GST and anti-His blots. The note with it: both partners purified.

B1: MBP-His-OsGID1 (receptor)
chain: MAGSDEVNRNECKTVVPLHTWVLISNFKLSYNILRRADGTFERDLGEYLDRRVPANARPLEGVSSFDHIIDQSVGLEVRIYRAAAEGDAEEGAAAVTRPILEFLTDAPAAEPFPVIIFFHGGSFVHSSASSTIYDSLCRRFVKLSKGVVVSVNYRRAPEHRYPCAYDDGWTALKWVMSQPFMRSGGDAQARVFLSGDSSGGNIAHHVAVRAADEGVKVCGNILLNAMFGGTERTESERRLDGKYFVTLQDRDWYWKAYLPEDADRDHPACNPFGPNGRRLGGLPFAKSLIIVSGLDLTCDRQLAYADALREDGHHVKVVQCENATVGFYLLPNTVHYHEVMEEISDFLNANLYY
notes: OsGID1, the rice gibberellin receptor GIBBERELLIN … DWARF1; also called PET32a-MBP-His-OsGID1; source: E. coli Rosetta (DE3), purified (Ni-NTA His-trap column)
Consider B1, for which the binding result is “binds”.
